Measurements as given in the nanobody polyreactivity screen of Harvey et al. (2022).

Test: yeast display, Sf9 membrane polyspecificity reagent, FACS + sequencing; frameworks hold sequencing errors
In short: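 After 36–48 hours of galactose induction, yeast (Saccharomyces cerevisiae BJ5465) displaying a synthetic nanobody library were stained at 4 °C for 1 hour with 10% biotinylated, detergent-solubilized Sf9 membrane reagent. Streptavidin microbeads enriched the stained cells before FACS sorting into low and high (top ~1%) gates on anti-HA and streptavidin fluorescence. Each clone's polyreactivity label reflects its gate of origin.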

Sequence | polyreactivity (PSR sort gate)
QVQLVESGGGLVQAGGSLRLSCAASGRTFKYYAMGWYRQAPGKERELVAAITSTGGSTYYADSVKGRFTISRDNAKNTVYLQMHSLKPEDTAVYYCNRYTQYRDRSDNHWGQGTQVTVSS | high polyreactivity
QVQLVESGGGLVQAGGSLRLSCAASGRTFLGYAMGWSRQAPGKERELVAAISTGGGRTYYADSVKGRFTISRDNAKNTVYLQMNSLKPEDTAVYYCATVPRHGAPTTFNYWGQGTQVTVSS | high polyreactivity
QVQLVESGGGLVQAGGSLRLSCAASGRTFLGYAMGWYRQAPGKERELVAAISSSGGSTYYADSVKGRVTISRDNAKNTVYFQMNCLKPEDTAVYYCAKRKRATGASGHGFGYWGQGTQVTVSS | high polyreactivity
QVQLVESGGGLVQAGGSLRLSCAASGRTFLINAMGWYRQAPGKEREMVAAITQSGGSTYYADSVKGRFTISRDNAKYTVYLQMNSLKPEDTAVYNCNATPDSVRWDYALSVVRYEYWGQGTQVTVSS | low polyreactivity
QVQLVESGGGLVQAGGSLRLSCAASGRTFLINSMGWYRQAPGKERELVAGITRNGGTTYYADSVKGRFTISRDNAKNTVYLQMNSLKPEDTAVYYCAKRYPSWFNYWGQGTQVTVSS | high polyreactivity
QVQLVESGGGLVQAGGSLRLSCAASGRTFLIYAMGWYRQAPGKERELVAAITNGVDSTYYADSVKGRFTISRDNAKNTVYLQMNSLKPEDTAVYYCNADTVVEWYSPSREYDYWGQGTQVTVSS | low polyreactivity
QVQLVESGGGLVQAGGSLRLSCAASGRTFLIYAMGWYRQAPGKERELVAGITRGSTTYADSVKGRFTISRDNAKNTVYLQMNSLKPEDTAVYYCAARNYSVATYGEYDDWGQGTQVTVSS | high polyreactivity
QVQLVESGGGLVQAGGSLRLSCAASGRTFLIYAMGWYRQAPGKETEFVAAIRGRGGSTYYADSVKGRFTISRDNAKNTVYFQMNCLKPVDTAVYYCAATFPGRSYRIRGYGYDYWGQGTQVTVSS | high polyreactivity
QVQLVESGGGLVQAGGSLRLSCAASGRTFLLNAMGWYRQAPGKERELVAAISRGGSTYYADSVKGRFTISRDNAKNTVYLQMNSLKPEDTAVYYCAARFWISHTHWDAGDYWGQGTQVTVSS | low polyreactivity
QVQLVESGGGLVQAGGSLRLSCAASGRTFLLYAMGWYRQAPGKERELVARITGRGGRTYYADSVKGRFTISRDNAKNTVYLQMNSLKPEDTAVYYCNKRYPLGTEYYYWGQGTQVTVSS | high polyreactivity
QVQLVESGGGLVQAGGSLRLSCAASGRTFLRYAMGWSRQAPGTETELVAAISSDGSTNYADSVKGRFTISRDNAKNTVYLQMNSLKPEDTAVYYCDADPQKWYTGYDYWGQGTQVTVSS | low polyreactivity
QVQLVESGGGLVQAGGSLRLSCAASGRTFLRYAMGWYREAPGKERELVAAITYGGRTNFADSVKGRFTISRDNAKNTVYFQMNSLKPEDTAVYYCAADRTYYYGLRVDYWGQGTQVTVSS | high polyreactivity
QVQLVESGGGLVQAGGSLRLSCAASGRTFLRYAMGWYRQAPGKERELVAAISWSGGRTYYADSVKGRFTISRDNAKNTVYLQMNSLKPEDTAVYYCNKVVLYGAHYYYWGQGTQVTVSS | high polyreactivity
QVQLVESGGGLVQAGGSLRLSCAASGRTFLTYVMGRYRQAPGKERELVAAITRGGRTNYADSVKGRFTISRDNAKNTVYLQMNSLKPEDTAVYYCARDDTPRYDYWGQGTQVTVSS | low polyreactivity
QVQLVESGGGLVQAGGSLRLSCAASGRTFLVNAMGWYRQAPGKERELVAAISSVGSTNYADSVKGRFTISRDNAKNTVYLQMNSLKPEVTSVYYCAKDAEYDCGQGTQVTVSS | low polyreactivity
QVQLVESGGGLVQAGGSLRLSCAASGRTFLWNAMGWYRQAPGKERELVAAITSGGRTTYADSVKGRFTISRDNAKNTVYLQMNSLKPEDTAVYYCAAVSANQDFDYWGQGTQVTVSS | high polyreactivity
QVQLVESGGGLVQAGGSLRLSCAASGRTFLYNAMGWYRQAPGKERELVAAISWSGGSTYYADSVKGRFTISRDNAKNTVYLQMNSLKPEDTAVYYCAATGRRSGFYYWGQGTQVTVSS | high polyreactivity
QVQLVESGGGLVQAGGSLRLSCAASGRTFLYVMGWNIQAPGKERELVAASSRGGSTSYADSVKGRFTISRDNAKNTVYLQMNSMKPEVTAVYYCAATNYWRDGYWGQGTQVTVSS | high polyreactivity
QVQLVESGGGLVQAGGSLRLSCAASGRTFLYYAMGWYRQAPGKERELVAAIDWSDDSTYYADSVKGRFTISRDNAKNTVYLQMNSLKPEDTAVYYCATDGLYLSWQYSWEELYYWGQGTQVTVSS | high polyreactivity
QVQLVESGGGLVQAGGSLRLSCAASGRTFLYYAMGWYRQAPGKERELVAAIRRGSSTYYADSVKGRFTISRDNAKNTVYLQMNSLKPEDTAVYYCAARGRYRIGPGRYGKRYDYWGQGTQVTVSS | high polyreactivity
QVQLVESGGGLVQAGGSLRLSCAASGRTFLYYAMGWYRQEPGKERELVAAITGRGGSTYNADSVKGLFTISRDNAQNTVYLKMNILKPEDTAVYYCAARDNWIRRDGYWGQGTQVTVSS | high polyreactivity
QVQLVESGGGLVQAGGSLRLSCAASGRTFLYYAMGWYRQSPGKERELVAAINRSGRTYYADSVKGRFTISRDNAKNTVYLQMNSLKPEDTAVYYCAADTRYPYRAYDYWGQGTQVTVSS | high polyreactivity

Sequence | polyreactivity (PSR sort gate)
QVQLVESGGGLVQAGGSLRLSCAASGRTFLYYTMGWYRQAPGKERELVAAITSGTSTNYADSVKGRFTIARDNAKNTVYLQMNSQKPEDTAVYYCNKRAARSLNGYPLYGYYSWGQGTQVTVSS | low polyreactivity
QVQLVESGGGLVQAGGSLRLSCAASGRTFNAYAMGWYRQAPGKERELVAAISSGGSTYYADSVKGRFTISRDNAKYTVYLQMNSLKPEDTAVYYCNKVYGWRQFDYWGQGTQVTVSS | high polyreactivity
QVQLVESGGGLVQAGGSLRLSCAASGRTFNGYAMGWYRQAPGKERELVASITLRGGSTYYADSVKGRFTISRDNAKNTVYLQMNSLKPEDTAVYYCAVGKFVRYPGRWRYRYDYWGQGTQVTVSS | high polyreactivity
QVQLVESGGGLVQAGGSLRLSCAASGRTFNINALGWYRQAPGKERELVAAITWTGGGNTYYADSVKGRFTISRDNAKNTVYLQMNSLKPEDTAVYYCNADGRNYFYEGFWEGNYWGQGTQVTVSS | low polyreactivity
QVQLVESGGGLVQAGGSLRLSCAASGRTFNIYAMGWYRQAPGKERELVAAISSGGSTYYADSVKGRFTISRDNAKNTVYLQMNSLKPEDTAVYYCAAVEFELRGDYWGQGTQVTVSS | low polyreactivity
QVQLVESGGGLVQAGGSLRLSCAASGRTFNKYAMGWYRQAPGKERELVAAITGSGGSTYYADSVKGRFTISRDNAKNTVYLEMNSLKPEDTAVYYCAAYAYGVWHSQDGGNYWGQGTQVTVSS | low polyreactivity
QVQLVESGGGLVQAGGSLRLSCAASGRTFNRNAMGWYRQAPGKERELVAAISWSGGRTYYADSVKGRFTISRDTAKNTVYLQMNSLKPEDTAVYYCAAPGKKYWGQGTQVTVSS | high polyreactivity
QVQLVESGGGLVQAGGSLRLSCAASGRTFNRYAMGWYRQAPGKERELVAAINSVGSTYYADSVKGRFTISRDNAKNTVYLQMNSLKPEDTAVYYCNAVQGSRFGYWGQGTQVTVSS | high polyreactivity
QVQLVESGGGLVQAGGSLRLSCAASGRTFNSNAMGWYRQAPGKERELVAAITRSGGSTYYADSVKGRFTISRDNAKNTVYLQMNSLKPEDTAVYYCNKTRWTQRTSFDYWGQGTQVTVSS | low polyreactivity
QVQLVESGGGLVQAGGSLRLSCAASGRTFNWYAMGWYRQAPGKERELVAAIRVNGGITYYADSVKGRFTISRDNAKNTVYLQMISLKPEDTAVYYCAVYSRQGLGYWGQGTQVTVSS | high polyreactivity
QVQLVESGGGLVQAGGSLRLSCAASGRTFNYNAMGWYRQAPGKERELVAAINYNGGSTYYADSVKGRFTISRDNAKNTVYVQMNSLKPEDTAVYYCAADYNEYDWGQGTQVTVSS | low polyreactivity
QVQLVESGGGLVQAGGSLRLSCAASGRTFNYYAMGWYRQAPGKERELVAAISWSGTPTYYADSVKGRFTISRDHAKNTVYLQMNSLKPEDTAVYYCAAYLVSYPRGNYIRYDYWGQGTQVTVSS | low polyreactivity
QVQLVESGGGLVQAGGSLRLSCAASGRTFNYYAMGWYRQAPGKERESVAAISWRGGSTYYADSVKGRFTISRDNAKNTVYLQMNSLKPEDTAVYYCNKYFSWRPYSYYYWGQGTQVTVSS | high polyreactivity
QVQLVESGGGLVQAGGSLRLSCAASGRTFNYYPMGWYRQAPGKERELVAAISRSGTPTYYADSVKGRFTISRDNAKNTVYLQMNSLKPEDTAVYYCAAYLVSYPRGNYIRYDYWGQGTQVTVSS | low polyreactivity
QVQLVESGGGLVQAGGSLRLSCAASGRTFNYYTMGWNRQAPGKEREFVAAITISGARTYYADSVKGRFTISRDNAKNTVYLQMNSLKPEDTAVYYCAARRRYRSRVTPVGYNYWGQGTQVTVSS | high polyreactivity
QVQLVESGGGLVQAGGSLRLSCAASGRTFPENAKGWYTQAPGKEREFVAVISSGGGSTTYADSVKGRFTISRDNAKNTVYLQMNSLKPEDTAVYYCATEYYFHGYWITYSWGQGTQVTVSS | low polyreactivity
QVQLVESGGGLVQAGGSLRLSCAASGRTFPENTMGWYRQAPAKERELVAAISSTTSTNYADSVKGRFTISRDNAKNTVYLQMNSLKPEDTAVYFWADDFWEYDGPWYANDYESWGLGTQVTVSS | low polyreactivity
QVQLVESGGGLVQAGGSLRLSCAASGRTFPFYAMGWYRPAPGTERELVASIRGGGGTNYADSVKGRFTISRDNAKNTVYLQMNSLKPEDTAVYYCAARGYGYRGYYYWGQGTQVTVSS | high polyreactivity
QVQLVESGGGLVQAGGSLRLSCAASGRTFPGNAMGWYRQAPGKERELVAAISYSGGRTYYSDSVKGRFTISRDNAKNTVYLQMNRLKPEDTAVYYCAKSIVQPSVAAYYYWGQGTQVTVSS | high polyreactivity
QVQLVESGGGLVQAGGSLRLSCAASGRTFPGNAMGWYRQAPGKERELVAAITRVGSTYYADSVKGRFTISRDNAKNTVYLQMNSLKPEDTAVYYCAADRLEGYYEDDATGFDYWRQGTQVTVSS | low polyreactivity
QVQLVESGGGLVQAGGSLRLSCAASGRTFPGYGMGWYRQAPGKERELVAVITSNGGITYYADSVKGRFTISRDNAKNTVYLQMNSLKPEDTAVYYCAAYEIYYEFDSWGQGTQVTVSS | low polyreactivity
